Experiment: soluble on expression in E. coli; label from the status in PepcDB or PDB records

Row | Sequence | soluble on expression in E. coli
1 | VTAVPTDSAEKPAVADAGVRSVTRVIDLLELFDAAHPTRSLKELVEGTKLPKTTVVRLVATMCARSVLTSRADGSYSLGPEMLRWVRLAGRTWAPPEEVVDIMRQLSADTGETVNLYIRQGLSRVVVAQCESTATVRSVIPLGVPYPLWAGAAGKILLLAAPELIDDVAADSPHGPEFADQLREKVEDGRERGYQLVHGERELGSSGLSFPLVDSHGTVVAALTLGGPTGRFTEDRTPHYIECTRAAAEEISAIGLPGLD | soluble
2 | MSLRQRFVLDTTAITDAGLRIKEGYESLCESAAEVLDLIALARLKLDISCYIPYPSVYTELTSFLKRYGCDEEIFTKLDTWLVKKTPNRYEVKIPAAIFYEYIITVRQKMNRGRRLAEEYILESSAITAKLEDKSKIEEEIGALISKFRDKYRAVMRQGILDSAPDLDVLLLAKELEAGVVSSDAGIRKWSERLGLRFVEAAKFPRMLKEYLKLMGSKDIVGWFESEEDEGHHHHHH | not soluble
3 | MSWIYDAHIHLSDPEYKSDIDMILNYMDLLKIKACCVSMDIETSNETMALYEKSKNVLPFIGIHPEMAQKSSEPVYELIEKNNEIISGIGEIGLDRTYINSEDEWEIQKDVFSKQLSLAEKFNKPVSIHSRKTLSDIFEILPSYKIPGILLHWFDGNKSQLKTAMENEYFVSYGPLLVYANDKQVLLSKTDPSRLLVETDGPVRFSHCFEYKTTEIMFVPSVLFCASKILHTSYENLLTQIEDNSKKFLGI | soluble
4 | MKSTFSVLFFVKKDKQKINGSYPIFVRITIDGVASRFNSKLDVQPKLWDGKAGKAAGRSAEATRINRLLDDINASLNTIYHELQRRDNYVTAEKVKNEFLGHSENHDTILNLFQKHNDDVKQLVGISKTIATYRKYEVTRRHLAEFIQSKYNLSDISIKEITPMFITDFELYLRTTCKCGYNTTAKFMQFFKRIILIARNNGILIGDPFANYKIRLEKVDRGYLTEDEIKIILKKKMVSERLEQVRDVFIFSCFSGLAYVDVANLKEDNIRKSFDGNLWIITKRQKTNTDVNVPLLDIPKMILEKYKGKLPNGKVLPIISNQK | not soluble
5 | MGSDKIHHHHHHVSIPANNSPVRLALIGAGRWGKNYIRTIAGLPGAALVRLASSNPDNLALVPPGCVIESDWRSVVSAPEVEAVIIATPPATHAEITLAAIASGKAVLVEKPLTLDLAEAEAVAAAAKATGVMVWVEHTQLFNPAWEALKADLTSIGPILAVRSEAGNHGPYRPGGVPMLWDWGAHDVSMVLDLMGRDPDSTSASWAARGEKDGGEAGDVTLTLAFSTVEAHIRLCNTMDKCRRLAVFGEAGTLVMDDRATDKLTLHPPQPDGNWPVGQGHALTVTDEMPLTRAVRLFAGAVRQPEPGPSPLELGLRVVRVLGACS | not soluble
6 | GNIAKPIRILGNGMDRVANGELETRISQQVDDRDDELSHLAIQFDKMVEKLEKLVAKERHLLHHVSHEMRSPLARMQAIVGLIQAQPQKQEQYLKRLEGELTRMDTLAGELLTLSRLETSNMALEKESLKLLPFLGNLVEDNQSIAQKNGQTVTLSADGKIPENTTILANESYLY | not soluble
7 | MAAQKKIPLRKCVVTGEMKPKREMVRIVRSKEGEVSIDPTGKKAGRGAYITLDPECILQAKKKNILARHLKADIDDAIYDELLALAEKEKQAGHEA | soluble
8 | GSPGIPMVAAHAAHSQSSAEWIACLDKRPLERSSEDVDIIFTRLKGVKAFEKFHPNLLRQICLCGYYENLEKGITLFRQGDIGTNWYAVLAGSLDVKVSETSSHQDAVTICTLGIGTAFGESILDNTPRHATIVTRESSELLRIEQEDFKALWEKYRQYMAGLLAPPYGVMETGSNNDRIPDKENVPSEKILRAGKILRIAILSRAPHMIRDRKYHLKTYRQCCVGTELVDWMIQQTSCVHSRTQAVGMWQVLLEDGVLNHVDQERHFQDKYLFYRFLDDEREDAPLPTEEEKKECDEELQDTMLLLSQMGPDAHMRMILRKPPGQRTVDDLEIIYDELLHIKALSHLSTTVKRELAGVLIFESHAKGGTVLFNQGEEGTSWYIILKGSVNVVIYGKGVVCTLHEGDDFGKLALVNDAPRAASIVLREDNCHFLRVDKEDFNRILRDVEANTVRLKEHDQDVLVLEKVPAGNRAANQGNSQPQQKYTVMSGTPEKILEHFLETIRLEPSLNEATDSVLNDFVMMHCVFMPNTQLCPALVAHYHAQPSQGTEQERMDYALNNKRRVIRLVLQWAAMYGDLLQEDDVAMAFLEEFYVSVSDDARMMAAFKEQLPELEKIVKQISEDAKAPQKKHKVLLQQFNTGDERAQKRQPIRGSDEVLFKVYCIDHTYTTIRVPVAASVKEVISAVADKLGSGEGLIIVKMNSGGEKVVLKSNDVSVFTTLTINGRLFACPREQFDSLTPLPEQEGPTTGTVGTFELMSSKDLAYQMTTYDWELFNCVHELELIYHTFGRHNFKKTTANLDLFLRRFNEIQFWVVTEVCLCSQLSKRVQLLKKFIKIAAHCKEYKNLNSFFAIVMGLSNVAVSRLALTWEKLPSKFKKFYAEFESLMDPSRNHRAYRLTAAKLEPPLIPFMPLLIKDMTFTHEGNKTFIDNLVNFEKMRMIANTARTVRYYRSQPFNPDAAQANKNHQDVRSYVRQLNVIDNQRTLSQMSHRLEPRRP | soluble
9 | METGTPLIAETIALTEKKVAMALDDIIKLAKRKTNVNKGKKPRREKNKNQNFNGAARNNTSNVRHHMNSLSAVRQGAVGKRRSRFQGIQFPVTTNIARKASTAAPLDFRGRAFNGGRMTSANQSRLIAPPVQNISVQARVNAKRHEVDQKVEHRGGKRKTLDSRFASMKEQRMTINNYGVTVQVPRLPPWVRARRFSQ | not soluble
10 | MFSWQEFTERDVSLFTENVIRSLINTKYNVICHIEDYTPPQFDSFLQLSACYNIGEKTEDEVINSDGIRWSKKKDSLGSEMKPRKNTISVDGRTFRRINCSSPPPATNLFKKYMAIEEATKLCWILFLGSSHDVIDYTSLKVARKKLSKEEALMIRKMLEGRTVLMVYQMLGGKYSKRQIKDQQRNVLTTVKLNRGPRPVTNPADLCDLSRMFSHAYHSSHRNSIRFIYFNKSMLGLFLKSCPTYTEITTYRNRMDGIENWRTADLNKHLADCKVYTCGGIDTRVASIIELDTTFGLSNGYISVTTGFIPVFRTRQHTKSSPSKLRHVVLGFMFHSSKHKSHFEDFSGRLNEILQELDPKKIKKIQL | not soluble
11 | MPQNEHIELHRKRHGRRLDHEERQRKKLARAAHDRSQMAKTLRGHKAKLYHKKRYSEKVEMRKLLKQHEEKDQKNTVEQPDKGAVPAYLLDRQQQTSGTVLSNMIKQKRKQKAGKFNVPIPQVRAVSDAEAFKVVKTGKTNRKGWKRMVTKVTFVGESFTRKPAKFERFIRPMGLRFKKAHVTHPELQTTFHLPIVGVKKNPSSQMYTSLGVITKGTILEVNVSELGMVTQGGKVVWGKFAQVTNNPENDGCINAVLLI | not soluble
12 | GSWDWNLITGEVCWSDELYHIFGRSPQESGATYDEFLSYVHPDDRDRVDNALKKGLNGESVAGNYRIILGDGEERIVRTEAEVVFDEK | not soluble
13 | MAATITDDIVATVLESIEEKSYEDEKEKAGMIKDEANQFFKDQVYDVAADLYSVAIEIHPTAVLYGNRAQAYLKKELYGSALEDADNAIAIDPSYVKGFYRRATANMALGRFKKALTDYQAVVKVCPNDKDARAKFDECSKIVRRQKFEAAISTDHDKKTVAETLDINAMAIEDSYDGPRLEDKITKEFVLQLIKTFKNQQKLHKKYAFKMLLEFYNYVKSLPTMVEITVPTGKKFTICGDVHGQFYDLCNIFEINGYPSETNPYLFNGDFVDRGSFSVETIFTMIGFKLLYPNHFFMSRGNHESDVMNKMYGFEGEVKAKYTQQMCDMFTETFCWLPLCHLINEKIFVCHGGLFKEDGVTLEDIRKTDRNRQPPDEGIMCDLLWEKNWKNLKILYPDGKINKNSNCQPKTCKNASDPQPINGRSPSKRGVGCQFGPDVTSKWCETNGIEYVVRSHEVKPEGYEMHHNGQCFTVFSAPNYCDQMNNKGAFITITGDNLTPRFTPFDAVPHPKLPPMAYANSLFGFN | not soluble
14 | MGSDKIHHHHHHMKTEITLLKGETVMVEPKEFLKAGQAFHGHKCPAMPMGLRVGAAAMNKLGVERSKDGQLLDLVELGDGHCATCFADGIQMITGCTFGKGNIKKLHYGKWGVTLIDTQTGRAVRVTPKAEAMLANKKSEFFTEYRMKHIPASKVPAEVVEPLVEKVMNAPDDMLLNIGDVFDYEVPPKVESFSGFVCDICGEMVVEGYGRPLDDKKVCQPCYEKAQREH | not soluble
15 | MNVMRHSWLAVAGIAGLLAFPPVDACTLWGAAGTASMEGSLLAKNRDWKPDHAQSLRLLHPEHGYAYLGLYADNGSEPGIKAGVNQKGLAVVAAEASSLPRALRADSARHGVLTRLLRDYGSLDEVASAADKLFAQARPVFLLLADAGGLMQVEIGQHGRYRLIRQQSGTLAHTNHYADTSLLDGAQTIGPSSQARLERIRFLLDQHPAHTLSEFERLSRDRHDGPDNSLWRSGREHTLAGWRIALPAGAPPRLQLTLANPGRAERDGDYALDSAFWAQPARTLLPKLAAALEHHHHHH | soluble
16 | MGSDKIHHHHHHMSIMNFSEYQTQALKTDQIPAVEGTELMIPLLGLVGEVGSLMTEYKKHLRDGDAHKLFKEGIAEELGDMLWYISNLASKFNLNLEEIAEDNLRKCRDRWGWRDSAQIEDKGTTYIFDNDFPENESLPRQFEVEITEISKDNSIKMKAFINKKQVGNDLTDNSYTSDGYRFHDVFHFSYAAVLGWSAVTRSMLKRKRKSNSSIDEVEDGGRAIAIEEGISALIFSYAKNHGFLERVSTLDYQILKTIKNMTCHLEVSQCSLGDWEKAILMGYDVWRQVEKNRGGRVVLDLDARLITYLKKSSLCSASVEIKH | not soluble
17 | MSTEPQFENPFIDRQLDGSKIHEISGHRFKATALVQPTCCAICSKLIYGLGKQGYRCLGCETVVHKRCHSLINDRCNFGPSSPRQPPPQELSSDSGELRHRIPSPTEPQVSTNHHFNKHFYTRPTFCDHCGSLLYGLSKQGVQCSDCLANVHHRCKEKAVHNCIVSSQ | not soluble
18 | MGHHHHHHSHMEPEAFEICPYDPHHRIPLSRFQYHLASCRRKNPKKAKKMATCKYNACHVVPIKNLEEHEAVCVNRSAVEEEDTENPLKVSPPSSEQNDDTQQVSPCLPSPDIWNVDGANCQHVFVLKTFFPQKVVCENDTKESARETSPQKILRPGQ | not soluble
19 | MALREMIIDESDDIESYSDQSLCLDKAKELLALIKLPTGLLPLKDMTEVGYNKTKGFVWMRMRSKIEHTFREIGRRVLYDTEITAFVEDRRMRRLTGVKSKELMIWVPVNDIFIKRKILRRSPLLIPPACHEHLKFQHFNVRVDKLKEKRSNQTSLM | not soluble
20 | GFVNVTGMFRDRARTNRADGNQLILFDQSDFPNGVAPPSGFPFAYPQVAGIIGEEAAQNARRIDNQILNQRGLERSDFQFRVGQSAVQQRAVFLNSEVGLGNDATLYAFGGLSYKNGIGAPFRRLPFSTSAMPYRASNTDPALFPNGFQPEMNSDVVDQSLTIGVEGTIGGWTWDLSNSYGRNSLDYQMDNTVNASLLQASPTSIYAGGHAFSQNVTNLDVSRFFDDALAGINVAFGGAYRTDRYQIFSGEEASYRNYGRVQLIDDTSAASPRLVTRDTLGKEPGTQGFVGFRPENEVDRTRSNVAAYLDTEVNLTENLLVTAAGRYENYSDFGGTLNGRLAARWGLLDGRLNLRGSASTGFRAPSLHQIYFNEVRT | not soluble
21 | MLIIETLPLLRQQIRRLRMEGKRVALVPTMGNLHDGHMKLVDEAKARADVVVVSIFVNPMQFDRPEDLARYPRTLQEDCEKLNKRKVDLVFAPSVKEIYPNGTETHTYVDVPGLSTMLEGASRPGHFRGVSTIVSKLFNLVQPDIACFGEKDFQQLALIRKMVADMGFDIEIVGVPIMRAKDGLALSSRNGYLTAEQRKIAPGLYKVLSSIADKLQAGERDLDEIITIAGQELNEKGFRADDIQIRDADTLLEVSETSKRAVILVAAWLGDARLIDNKMVELA | soluble
